The record followed here is patent US20240368285A1 (HEFEI TG IMMUNOPHARMA, published 2024).

Experiment [1] addresses T1, MICA protein (SPR analyte) (human, UniProt Q29983 24-308, limits assumed).
T1 construct: also called major histocompatibility complex class I chain related polypeptide A
T1 sequence: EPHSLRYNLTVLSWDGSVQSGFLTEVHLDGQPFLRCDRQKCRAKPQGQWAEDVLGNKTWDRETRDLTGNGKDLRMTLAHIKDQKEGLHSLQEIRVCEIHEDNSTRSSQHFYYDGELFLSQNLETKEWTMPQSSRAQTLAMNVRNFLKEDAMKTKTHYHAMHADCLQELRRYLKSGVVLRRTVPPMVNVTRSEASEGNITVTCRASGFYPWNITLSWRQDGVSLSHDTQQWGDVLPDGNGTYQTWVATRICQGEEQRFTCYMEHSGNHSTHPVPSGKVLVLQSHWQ
Briefly: SPR, Biacore 8K, antibody captured on protein A chip, MICA as analyte. As to the method: In a Biacore 8K (Cytiva) system, the antibody was diluted to a concentration of 10 µg/mL with running buffer (HBS-EP), and the antibody was conjugated onto a protein A (Cytiva, 29127556) chip at a flow rate of […].
Kinetic and affinity data of binding of the maternal antibody h5A1 and the affinity maturation antibody h5A1002 and MICA were detected.
On the technique in general: Surface plasmon resonance follows binding to a sensor surface in real time, without labels.

A further experiment deals with T2, MICB005α3-Fc.
T2 construct: also called MICB*005-Fc; domain α3 of MICB-005 Fc fusion protein
T2 sequence (chain, as listed by the source limits assumed): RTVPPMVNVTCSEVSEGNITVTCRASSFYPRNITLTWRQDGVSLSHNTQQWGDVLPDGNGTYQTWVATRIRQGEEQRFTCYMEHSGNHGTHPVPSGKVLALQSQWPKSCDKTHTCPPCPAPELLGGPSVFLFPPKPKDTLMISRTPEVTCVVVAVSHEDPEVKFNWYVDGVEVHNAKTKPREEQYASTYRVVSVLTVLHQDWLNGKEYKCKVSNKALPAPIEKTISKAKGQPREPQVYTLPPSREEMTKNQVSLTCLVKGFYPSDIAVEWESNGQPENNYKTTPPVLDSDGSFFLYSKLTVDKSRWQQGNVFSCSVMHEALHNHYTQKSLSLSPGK
Briefly: ELISA on coated MICB*005 α3-Fc (1 µg/ml), HRP anti-human Fab secondary, OD450. As to the method:
After the antibodies were added, signal intensity was used for judging the binding characteristics of the antibodies and MICA and MICB.
The fusion proteins (produced in the Applicant's laboratory; an amino acid sequence of MICA002α3-Fc is as set forth in SEQ ID NO: 22; an amino acid sequence of MICA005α3-Fc is as set forth in SEQ ID NO: 24; an amino acid sequence of MICA008α3-Fc is as set forth in SEQ ID NO: 25; an amino acid sequence of MICA004α3-Fc is as set forth in SEQ ID NO: 23; an amino acid sequence of MICB001α3-Fc is as set forth in SEQ ID NO: 26; and an amino acid sequence of MICB005α3-Fc is as set forth in SEQ ID NO: 27) were diluted to a concentration of 1 μg/ml with PBS and then added into a 96-well plate in a volume of 100 μl/well. The plate was placed at 4° C. overnight. The PBS in the 96-well plate was removed by sucking. After the plate was washed with PBST (that is, PBS having a pH value of 7.2 included 0.1 volume % of Tween 20) for 6 times, PBS containing 10% of BSA was added in a volume of 200 μl/well. The plate was incubated at 37° C. for 2 hours for blocking. The blocking solution was removed. […]

The next experiment concerns the target T3, MICA005α3-Fc (human).
T3 construct: also called MICA*005-Fc; domain α3 of MICA-005 Fc fusion protein
In words: ELISA on coated MICA*005 α3-Fc (1 µg/ml), HRP anti-human Fab secondary, OD450. On the technique in general: In an ELISA, binding on a coated surface is turned into a signal by an enzyme label.

Experiment [2] concerns the target T4, MICA on human tumor cells (A-375, A549, HCT-15, MDA-MB-231) (human, UniProt Q29983 24-383).
T4 construct: whole, on cells
T4 sequence (looked up): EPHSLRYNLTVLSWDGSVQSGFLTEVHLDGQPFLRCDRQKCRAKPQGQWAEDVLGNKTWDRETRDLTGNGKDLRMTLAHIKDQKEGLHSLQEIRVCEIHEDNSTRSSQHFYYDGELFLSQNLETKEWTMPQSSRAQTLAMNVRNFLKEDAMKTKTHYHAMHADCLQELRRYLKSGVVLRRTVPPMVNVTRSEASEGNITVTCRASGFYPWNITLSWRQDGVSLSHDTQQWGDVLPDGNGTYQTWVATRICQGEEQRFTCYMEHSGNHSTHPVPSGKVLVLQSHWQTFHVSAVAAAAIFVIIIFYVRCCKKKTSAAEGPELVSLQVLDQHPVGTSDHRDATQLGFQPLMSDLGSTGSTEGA
Briefly: flow cytometry competition on HCT-15 cells; competitor: Biotin-h5A1002, detected with Alexa-647 streptavidin; % binding ratio of Biotin-h5A1002. The protocol:
HCT-15 cells were diluted to a density of 2×10⁶/mL with PBS and added into a 1.5 ml EP tube in a volume of 100 l/tube. 10 l/tube of goat serum was added into the EP tube, and blocking was conducted at 4° C. for 30 min. […] The tube was incubated at 4° C. for 30 min. A biotin-labeled affinity maturation antibody Biotin-h5A1002 (having a heavy chain sequence as set forth in SEQ ID NO: 13 and a light chain sequence as set forth in SEQ ID NO: 14) was added. The tube was incubated at 4° C. for 30 min. 1 mL of PBS was added into the EP tube, and centrifugation was conducted 4° C. at a rate of 3,500 rpm for 5 min. The supernatant was removed. The EP tube was washed once with the PBS, and the supernatant was removed after centrifugation. The cells were resuspended with PBS in a volume of 100 l/tube. An Alexa-647 labeled Streptavidin secondary antibody (purchased from Biolegend) was added into the tube in a volume of 1 l/tube, and the tube was incubated in the dark at 4° C. for 30 min. The tube was washed twice with PBS, and the supernatant was removed after centrifugation. The cells were resuspended with the PBS in a volume of 200 μl/tube, and detection was conducted by a flow cytometer.
(A flow cytometer gives signals particle by particle.)

By Kd is commonly meant the equilibrium constant for the complex coming apart. Low values mean a tighter complex, high ones a looser complex. By koff is commonly meant the rate constant with which the complex falls apart. A lower koff goes with slow dissociation. As a reminder, the kon is the second-order rate constant of association. Broadly, the EC50 (read off the curve) is the midpoint of the concentration-response curve. A low value points to an effect from little substance.

T3 sequence (chain, as listed by the source limits assumed): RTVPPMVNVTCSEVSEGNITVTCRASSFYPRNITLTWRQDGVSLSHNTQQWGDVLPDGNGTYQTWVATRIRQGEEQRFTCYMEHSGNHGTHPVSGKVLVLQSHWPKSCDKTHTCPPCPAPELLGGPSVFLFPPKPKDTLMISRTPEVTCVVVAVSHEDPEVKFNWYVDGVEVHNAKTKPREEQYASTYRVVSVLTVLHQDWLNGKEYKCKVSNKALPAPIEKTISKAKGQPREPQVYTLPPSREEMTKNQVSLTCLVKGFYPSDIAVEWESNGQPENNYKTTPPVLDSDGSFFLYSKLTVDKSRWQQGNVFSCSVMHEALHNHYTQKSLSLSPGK

B1: affinity maturation antibody h5A1002 (antibody, V domains shown)
VH: QVQLQESGPGLVKPSETLSLTCTVSGFSLTTYGGHWIRQPPGKGLEWIGMIWTDGWTDYNAAFISRVTISVDTSKNQFSLKLSSVTAADTAVYYCARKGHGYYYAMDYWGQGTLVTVSS
VL: EIVLTQSPGTLSLSPGERATLSCTASSSVSSSYLHWYQQKPGQAPRLLIYSTSNLISGIPDRFSGSGSGTDFTLTISRLEPEDFAVYYCHQYHRSPFTFGQGTKLEIKR
notes: Human IgG1, kappa; also called h5A1002-hIgG1
For the molecule B1, in experiment [1], the Kd was 5.4 nM, the koff stood at 0.000129 s⁻¹ and the kon was found to be 23800 M⁻¹ s⁻¹. Further, the “EC50 (read off the curve)” value with MICB005α3-Fc is roughly 50 ng/mL. In addition, the “EC50 (read off the curve)” value with MICA005α3-Fc was roughly 0.04 µg/mL. Besides, in experiment [2], the “IC50 (read off the curve)” value was roughly 1 µg/mL.
